Source: US9526786B2, “Thermostabilization of proteins” (The Trustee of Columbia University in the City of New York, priority 2007, dated 2016)

T1: CocE WT (Rhodococcus sp., UniProt Q9L9D7)
T1 construct: 6xHis (C); made in house; host or cells: E. coli BL-21 Gold (DE3), pET-22b(+)
T1 sequence (Q9L9D7 1-574): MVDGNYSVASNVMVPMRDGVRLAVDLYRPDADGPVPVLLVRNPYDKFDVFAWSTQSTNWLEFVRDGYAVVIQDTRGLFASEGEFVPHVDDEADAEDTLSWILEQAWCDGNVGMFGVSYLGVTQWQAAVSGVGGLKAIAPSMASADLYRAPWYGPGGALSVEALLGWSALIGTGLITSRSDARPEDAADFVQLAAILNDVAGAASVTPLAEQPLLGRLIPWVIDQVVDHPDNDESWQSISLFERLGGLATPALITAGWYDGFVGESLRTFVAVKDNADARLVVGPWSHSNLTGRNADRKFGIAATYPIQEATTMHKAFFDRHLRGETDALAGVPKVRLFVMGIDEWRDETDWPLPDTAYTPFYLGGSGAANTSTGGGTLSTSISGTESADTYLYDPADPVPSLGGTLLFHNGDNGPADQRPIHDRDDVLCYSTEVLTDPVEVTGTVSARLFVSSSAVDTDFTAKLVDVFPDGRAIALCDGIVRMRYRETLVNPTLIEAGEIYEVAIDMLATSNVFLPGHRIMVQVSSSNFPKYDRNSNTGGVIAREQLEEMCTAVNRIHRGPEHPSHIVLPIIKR

T2: CocE (Rhodococcus sp., UniProt Q9L9D7)
T2 construct: 6xHis (C); made in house; host or cells: E. coli BL-21 Gold (DE3), pET-22b(+)
T2 sequence (Q9L9D7 1-574): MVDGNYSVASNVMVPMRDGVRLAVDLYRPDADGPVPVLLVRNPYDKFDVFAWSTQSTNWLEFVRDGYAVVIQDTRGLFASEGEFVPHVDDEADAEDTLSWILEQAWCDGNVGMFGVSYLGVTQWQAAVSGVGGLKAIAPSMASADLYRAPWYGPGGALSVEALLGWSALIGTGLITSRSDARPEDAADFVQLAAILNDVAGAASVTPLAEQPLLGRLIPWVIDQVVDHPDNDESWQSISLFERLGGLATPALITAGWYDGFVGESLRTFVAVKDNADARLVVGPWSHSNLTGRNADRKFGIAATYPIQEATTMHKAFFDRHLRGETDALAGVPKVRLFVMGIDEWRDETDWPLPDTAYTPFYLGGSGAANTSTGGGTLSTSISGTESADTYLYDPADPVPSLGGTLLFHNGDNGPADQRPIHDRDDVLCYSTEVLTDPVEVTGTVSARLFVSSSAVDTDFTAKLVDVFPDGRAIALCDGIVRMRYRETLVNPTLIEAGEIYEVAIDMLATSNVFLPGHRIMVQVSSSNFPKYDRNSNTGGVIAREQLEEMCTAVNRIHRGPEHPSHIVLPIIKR

B1: T172R: CocE mutant (protein, listed as Rhodococcus sp.)
chain: MVDGNYSVASNVMVPMRDGVRLAVDLYRPDADGPVPVLLVRNPYDKFDVFAWSTQSTNWLEFVRDGYAVVIQDTRGLFASEGEFVPHVDDEADAEDTLSWILEQAWCDGNVGMFGVSYLGVTQWQAAVSGVGGLKAIAPSMASADLYRAPWYGPGGALSVEALLGWSALIGRGLITSRSDARPEDAADFVQLAAILNDVAGAASVTPLAEQPLLGRLIPWVIDQVVDHPDNDESWQSISLFERLGGLATPALITAGWYDGFVGESLRTFVAVKDNADARLVVGPWSHSNLTGRNADRKFGIAATYPIQEATTMHKAFFDRHLRGETDALAGVPKVRLFVMGIDEWRDETDWPLPDTAYTPFYLGGSGAANTSTGGGTLSTSISGTESADTYLYDPADPVPSLGGTLLFHNGDNGPADQRPIHDRDDVLCYSTEVLTDPVEVTGTVSARLFVSSSAVDTDFTAKLVDVFPDGRAIALCDGIVRMRYRETLVNPTLIEAGEIYEVAIDMLATSNVFLPGHRIMVQVSSSNFPKYDRNSNTGGVIAREQLEEMCTAVNRIHRGPEHPSHIVLPIIKR
B2: L169K: CocE mutant (protein, listed as Rhodococcus sp.)
chain: MVDGNYSVASNVMVPMRDGVRLAVDLYRPDADGPVPVLLVRNPYDKFDVFAWSTQSTNWLEFVRDGYAVVIQDTRGLFASEGEFVPHVDDEADAEDTLSWILEQAWCDGNVGMFGVSYLGVTQWQAAVSGVGGLKAIAPSMASADLYRAPWYGPGGALSVEALLGWSAKIGTGLITSRSDARPEDAADFVQLAAILNDVAGAASVTPLAEQPLLGRLIPWVIDQVVDHPDNDESWQSISLFERLGGLATPALITAGWYDGFVGESLRTFVAVKDNADARLVVGPWSHSNLTGRNADRKFGIAATYPIQEATTMHKAFFDRHLRGETDALAGVPKVRLFVMGIDEWRDETDWPLPDTAYTPFYLGGSGAANTSTGGGTLSTSISGTESADTYLYDPADPVPSLGGTLLFHNGDNGPADQRPIHDRDDVLCYSTEVLTDPVEVTGTVSARLFVSSSAVDTDFTAKLVDVFPDGRAIALCDGIVRMRYRETLVNPTLIEAGEIYEVAIDMLATSNVFLPGHRIMVQVSSSNFPKYDRNSNTGGVIAREQLEEMCTAVNRIHRGPEHPSHIVLPIIKR

Tests used:
CocE WT = molecular target: T1, CocE WT; test: Inhibition of CocE WT aggregate formation, non-denaturing gel, 1 hour at 37° C.; design: species or system Rhodococcus sp. MB 1
Excerpt: To further study CocE stabilization with small molecules, other inhibitors of the CocE cleavage reaction were considered.

CocE [1] = molecular target: T2, CocE; type: biochemical, Rhodococcus sp. MB 1; settings: for stabilization of CocE at 37° C., lower concentrations: cocaine lower than 62.5 μM, others below 125 μM
Procedure: (§1) Further spectrophotometric analysis of cocaine stabilization was performed, by analyzing the ability of CocE to cleave 4-nitrophenyl acetate, after preincubation at 37° C. for various times, in the presence of various concentrations of cocaine.

CocE [2] = molecular target: T2, CocE; type: biochemical, Rhodococcus sp. MB 1; settings: cocaine: 62.5 and 125 μM; benzoic acid: higher concentrations
Procedure: CocE is also able to cleave another substrate, 4-nitrophenyl acetate (FIG. 3). Cleavage is monitored by detection of the appearance of the 4-nitrophenol reaction product, which absorbs at 400 nm.
as §1, with “cocaine. […] However, preincubation of CocE at the higher concentrations for various times at 37° C. indicated the enzyme was stabilized enough to be able to cleave the 4-nitrophenyl substrate (FIG. 5).” for “cocaine.”

[3] = Michaelis-Menten kinetics of cocaine hydrolysis (absorbance at 240 nm); type: biochemical; settings: cocaine
Procedure: (§2) The initial rates (of decay) were determined by following the change in the intrinsic absorbance of cocaine at 240 nm (6700 M^1 cm^1)(Xie et al., 1999) using a SpectraMax Plus 384 UV plate reader (Molecular Devices, Sunnyvale, Calif.) using SOFTmax Pro software (Version 3.1.2). The reaction was initiated by adding 100 μL of a 2× enzyme solution (100 mM phosphate buffer, pH 7.4 and 300 mM NaCl) to 100 μL of a 2× cocaine solution (50 μg/mL enzyme, 100 mM Phosphate Buffer, pH 7.4 and 300 mM NaCl). All assays were performed with 100 μM DTT unless indicated otherwise. Final cocaine concentrations were as follows: 125, 62.5, 31.25, 15.63, 7.81, 3.91, 1.95, and 0.977 μM. Vmax and Km values were calculated using Prism (GraphPad Software, San Diego). For stability measurements, wild type and mutant enzymes were diluted to 2× concentration and incubated at 37° C. for the times indicated. At the end of each time point, an aliquot was removed and kinetic behavior was observed as outlined above.
(§3) In vitro kinetic assays. […] Initial rates were then used to determine Michaelis-Menten parameters. To assess thermal stability, enzyme preparations were preincubated at 37° C. for various lengths of time, prior to measurement of residual activities (Table 1 and FIG. 23).
Determination of Catalytic Efficiency. To determine the catalytic activity a spectrophometric assay was performed. Samples of L169K/G173Q CocE were added to a 96-well UV permeable plate containing increasing cocaine concentrations (0.5, 2.5, 5, 12.5, 25, 50, 100, and 150 μM) to give a final concentration of 10 ng/ml CocE in a final volume of 200 μl. The change in absorbance at 240 nm was measured over 20 minutes, with readings every 10 seconds, by a SpectraMax Plus 384 UV plate reader (Molecular Devices, Sunnyvale, Calif.) using SOFTmax Pro software (Version 3.1.2). The change in absorbance was converted to the change in concentration and furthermore the rate of decay per mole enzyme is determined (Kcat). Kcat and Km of the enzyme are determined using Prism (GraphPad software, San Diego).

[4] = tested on: cocaine-induced lethality; test: In vivo duration of protection against cocaine-induced lethality; design: species or system NIH-Swiss mice; settings: 1 mg i.v.; cocaine 180 mg/kg i.p.
Procedure: In vivo protection against cocaine lethality. Male NIH-Swiss mice (25-32 g) were obtained from Harlan Inc. (Indianapolis, Ind.) and were housed in groups of 6 mice per cage. All mice were allowed ad libitum access to food and water, and were maintained on a 12-h light-dark cycle with lights on at 06.30 AM in a room kept at a temperature of 21-22° C. Experiments were performed in accordance with the Guide for the Care and Use of Laboratory Animals as adopted and promulgated by the National Institutes of Health. The experimental protocols were approved by the University Committee on the Use and Care of Animals at the University of Michigan.
Cocaine-induced toxicity was characterized by the occurrence of lethality, as defined by the cessation of observed movement and respiration. Mice were placed individually in Plexiglas observation chambers (16×28×20 cm high) to be habituated for 15 min before drug administration. Following intra-peritoneal (i.p.) cocaine administration, the mouse was immediately placed individually in the same chamber for observation. The presence or absence of lethality was recorded for 60 min following cocaine administration. The mouse was placed in a small restraint chamber (Outer tube diameter: 30 mm; Inner tube diameter: 24 mm) that left the tail exposed. The tail was cleansed with an alcohol wipe and a 30G1/2 precision glide needle (Fisher Scientific, Pittsburgh, Pa.) was inserted into one of the side veins for infusion. The i.v. injection volume of CocE or CocE mutant was 0.2 mL per mouse. Sterile gauze and pressure were applied to the injection site to staunch the bleeding.
Lethality was monitored following injection at 1, 5, 10, or 30 min, or 1, 2, 3, 4, 5 hours after enzyme administration. Each treatment used 8 mice to assess the percent of lethality (i.e., protection) in mice pretreated with a single dose of an esterase at a single time point.
These values were used to compare the degree of rightward shifts of cocaine's dose-response curve in the absence or presence of the enzyme pretreatment. In the time course study, a time point for duration of protection (i.e., 50% of lethality) was estimated by using each time course curve crossing 50% occurrence of lethality.
Evaluation of in vivo half life. CocE is administered IV to the tail vein in a volume of 0.2 ml. Animals are challenged with 180 mg/kg cocaine delivered intraperitoneally at a given time after CocE administration.

[5] = Circular dichroism melting temperature of CocE proteins alone; type: physicochemical; settings: for melting temperature: circular dichroism, enzyme alone
Procedure: Further characterization of the stability of wild type (WT) CocE and thermostable mutants was performed through circular dichroism, which detects small changes in protein conformation and structure. Analysis by repeated CD measurements at increasing temperatures allows analysis of the thermodynamics and melting temperature (TM) of the protein, so long as the melting is reversible (i.e. the protein resumes it's original conformation upon cooling). […] However CD is still of value in determining the temperature to unfolding.

[6] = tested on: cocaine-induced lethality; test: In vivo potency of protection against cocaine-induced lethality; design: species or system NIH-Swiss mice; settings: for protection against cocaine-induced lethality: i.v. pretreatment 1 min prior to i.p. cocaine
[7] = Procedure: Analysis of CocE action on cocaine cleavage is performed by utilizing the spectroscopic properties of cocaine, which maximally absorbs light at a 240 nm wavelength. CocE activity is measured by monitoring for a decrease in signal at A240, using various concentrations of cocaine, and determining the initial rate of the decrease. From these values the Vmax of the enzyme can be determined. By pre-incubating the enzyme at 37° C. for various times before monitoring for activity, the half life of CocE at 37° C. can be calculated.
as §2, with “Final cocaine concentrations were as follows: 125, 62.5, 31.25, 15.63, 7.81, 3.91, 1.95, and 0.977 μM. Vmax and Km values were calculated using Prism (GraphPad Software, San Diego).” left out
as §3

Molecule | inhibition of formation of CocE protein aggregates (CocE WT) | stabilization of CocE at 37° C., lower concentrations (CocE [1]) | Kcat(mol · s^−1 · mol^−1) [3] [mol · s^−1 · mol^−1] | LT50, pretreatment time to 50% lethality [4] [h] | melting temperature [5] [°C] | protection against cocaine-induced lethality [6] | Stability @ 37 (t1/2) [7] [h] | half-life / τinact of activity at 37° C. [7] [h] | t1/2 [7] [h] | also measured
COC(=O)[C@@H]1[C@H]2CC[C@@H](C[C@@H]1O)N2C [ecgonine methyl ester] | could not | did not reveal any stabilization |  |  |  |  |  |  |  | 
O=C(O)c1ccccc1 [benzoic acid] | inhibited the formation of aggregates | did not reveal any stabilization |  |  |  |  |  |  |  | inhibition of 4-nitrophenyl acetate cleavage (CocE [2]): inhibit; stabilization of CocE at 37° C., higher concentrations (CocE [1]; cocaine 62.5 and 125 μM, benzoic acid above 125 μM): stabilize
CC(=O)[O-].[Na+] [sodium acetate] | could not | did not reveal any stabilization |  |  |  |  |  |  |  | 
B1 |  |  | 2502 | ~1.8 | ~42 | protected | ~0.767 | 0.767 | 0.78 | melting temperature higher than the WT [5]: 2-3 degrees
B2 |  |  | 3104 | ~3.3 | ~65 | protected | ~4.57 | 4.57 | 4.57 | increase in Km [3]: ~5 fold; rightward shift in the cocaine dose-response curve ([6]; enzyme 1 mg (30 mg/kg) i.v.): 6-7 fold; plateau of catalytic activity, percent of maximal ([7]; 37° C., after greater than 8 hr / t=10 hours): approximately 35%
